Earlier results, collected in publication PMC9696605.

Biological target: Fyn SH3 (Homo sapiens) (UniProt P06241)
Sequence (P06241 79-146): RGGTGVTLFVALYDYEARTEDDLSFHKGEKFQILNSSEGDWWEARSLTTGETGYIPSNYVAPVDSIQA

Chain of MBP (P02686 whole entry): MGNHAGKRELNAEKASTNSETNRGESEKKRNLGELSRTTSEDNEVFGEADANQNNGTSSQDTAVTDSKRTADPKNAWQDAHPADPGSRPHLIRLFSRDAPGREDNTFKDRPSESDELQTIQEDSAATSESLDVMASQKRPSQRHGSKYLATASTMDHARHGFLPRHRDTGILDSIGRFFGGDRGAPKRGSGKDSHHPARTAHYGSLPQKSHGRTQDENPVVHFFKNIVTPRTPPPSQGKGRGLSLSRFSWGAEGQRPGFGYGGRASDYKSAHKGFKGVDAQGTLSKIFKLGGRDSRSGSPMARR

Kd: 6 µM
Substance: MBP (from UniProt P02686)
